Results as given in patent US20240417450A1 (UNIVERSITY OF TOKYO, published 2024).

T1: E. coli wild-type SHMT, GST fusion protein (E. coli, UniProt P0A825 1-417)
T1 construct: Overexpressed in E. coli as a GST fusion protein, purified and immobilised on the ELISA plate at 2 ug/ml; not shown: Glutathione-S-transferase (GST) fusion partner
T1 sequence: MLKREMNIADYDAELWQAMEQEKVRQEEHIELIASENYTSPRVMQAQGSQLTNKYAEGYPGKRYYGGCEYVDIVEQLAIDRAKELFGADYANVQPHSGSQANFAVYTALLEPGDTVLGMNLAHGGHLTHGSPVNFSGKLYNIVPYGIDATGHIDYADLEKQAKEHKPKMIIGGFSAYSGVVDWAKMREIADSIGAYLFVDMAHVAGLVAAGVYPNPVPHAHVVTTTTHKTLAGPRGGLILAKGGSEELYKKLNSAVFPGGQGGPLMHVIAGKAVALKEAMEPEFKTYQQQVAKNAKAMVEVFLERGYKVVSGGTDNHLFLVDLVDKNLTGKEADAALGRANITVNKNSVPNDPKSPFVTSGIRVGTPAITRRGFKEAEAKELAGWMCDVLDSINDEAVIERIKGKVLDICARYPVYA

T2: E. coli SHMT (25-45) (E. coli)
T2 construct: Final purified peptide used for crystallisation
T2 peptide: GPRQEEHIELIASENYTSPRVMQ

T3: C. difficile iPGM (486-509) (C. difficile)
T3 construct: Final purified peptide used for crystallisation
T3 peptide: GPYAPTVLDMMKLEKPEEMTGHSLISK

T4: E. coli iPGM (E. coli, UniProt P37689 1-514, limits assumed)
T4 sequence (looked up): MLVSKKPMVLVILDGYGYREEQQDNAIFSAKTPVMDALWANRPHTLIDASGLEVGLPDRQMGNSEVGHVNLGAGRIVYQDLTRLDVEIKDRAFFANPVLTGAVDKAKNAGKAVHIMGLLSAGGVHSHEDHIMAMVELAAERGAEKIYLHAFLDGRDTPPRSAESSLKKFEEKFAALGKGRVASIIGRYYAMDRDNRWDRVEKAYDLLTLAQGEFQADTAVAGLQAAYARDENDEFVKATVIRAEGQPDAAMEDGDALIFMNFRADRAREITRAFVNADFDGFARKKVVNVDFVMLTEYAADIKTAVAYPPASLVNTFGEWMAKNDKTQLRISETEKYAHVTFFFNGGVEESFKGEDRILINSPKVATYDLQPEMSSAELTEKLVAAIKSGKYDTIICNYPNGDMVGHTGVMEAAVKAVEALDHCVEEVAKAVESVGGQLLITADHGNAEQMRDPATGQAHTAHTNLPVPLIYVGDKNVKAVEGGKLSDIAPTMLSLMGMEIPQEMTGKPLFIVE


What was measured:
[1] = molecular target: T1, E. coli wild-type SHMT, GST fusion …; assay: ELISA, GST fusion protein immobilised at 2 ug/ml, antibody dilution series
E. coli SHMT (25-45) = molecular target: T2, E. coli SHMT (25-45); assay: X-ray crystal structure of the Fab-peptide complex
[2] = molecular target: T3, C. difficile iPGM (486-509); assay: X-ray crystal structure of the Fab-peptide complex
E. coli iPGM = molecular target: T4, E. coli iPGM; assay: Western blot

| Binder | binding result [1] | other results |
| --- | --- | --- |
| RS_H007_L001 (antibody, V domains shown) VH: EVQLQQSGSELVKSGASVKLSCTVSGFNFTNYYIHWVRQRTEQGLEWIGRIDPENNQTTYAPKFQGKATMTADTSSNTAYLQLTSLTSEDTAVYYCARSTVLDYWGHGTTLTVSS VL: DVLMTQSPASLSVSLGDRATISCRASQSIVHTNGNTYLEWYLQKPGQSPKLLIYKVSNRFSGVPDRFSGSGSGTDFILKISRVEAEDLGVYYCFQGSHVPPTFGGGTKLEVK | binds |  |
| RS_H000_L000GR Fab (Fab, V domains shown, Fab made by papain digestion of the W27 recombinant IgG expressed in CHO cells; also called IgG W27 Fab) VH: EVQLQQSGSELVKSGASVKLSCTVSGFNFTDYYIHWVRQRTEQGLEWIGRIDPENDETTYAPKFQGKATMTADTSSNTAYLQLTSLTSEDTAVYYCARSTVLDYWGHGTTLTVSS VL: DVLMTQTPLSLPVSLGDQASISCRASQSIVHTNGNTYLEWYLQKPGQSPKLLIYKVSNRFSGVPDRFSGSGSGTDFILKISRVEAEDLGVYYCFQGSHVPPTFGGGTKLEVK |  | binding result (E. coli SHMT (25-45)): binds; binding result [2]: binds |
| W27G2 antibody (mouse hybridoma-producing IgA) (antibody, V domains shown, Hybridoma-producing IgA from intestinal mucosa lamina propria B cells; also called W27 antibody; W27G2-CHT) VH: EVQLQQSGSELVKSGASVKLSCTVSGFNFTDYYIHWVRQRTEQGLEWIGRIDPENDETTYAPKFQGKATMTADTSSNTAYLQLTSLTSEDTAVYYCARSTVLDYWGHGTTLTVSS VL: DVLMTQTPLSLPVSLGDQASISCRASQSIVHTNGNTYLEWYLQKPGQSPKLLIYKVSNRFSGVPDRFSGSGSGTDFILKISRVEAEDLGVYYCFQGSHVPPTFGGGTKLEVKR | binds | binding result (E. coli iPGM): no binding |
| RS_H007_L004 (antibody, V domains shown) VH: EVQLQQSGSELVKSGASVKLSCTVSGFNFTNYYIHWVRQRTEQGLEWIGRIDPENNQTTYAPKFQGKATMTADTSSNTAYLQLTSLTSEDTAVYYCARSTVLDYWGHGTTLTVSS VL: DVLMTQSPASMSVSLGDRATISCRSSQSIVHTNGNTYLEWYLQKPGQSPKLLIYKVSNRFSGVPDRFSGSGSGTDFILKISRVEAEDLGVYYCFQGSHVPPTFGGGTKLEVK | binds |  |
| RS_H007_L002 (antibody, V domains shown) VH: EVQLQQSGSELVKSGASVKLSCTVSGFNFTNYYIHWVRQRTEQGLEWIGRIDPENNQTTYAPKFQGKATMTADTSSNTAYLQLTSLTSEDTAVYYCARSTVLDYWGHGTTLTVSS VL: DVLMTQSPASLSVSLGDRVTISCRASQSIVHTNGNTYLEWYLQKPGQSPKLLIYKVSNRFSGVPDRFSGSGSGTDFILKISRVEAEDLGVYYCFQGSHVPPTFGGGTKLEVK | binds |  |
| RS_H000_L005 (antibody, V domains shown) VH: EVQLQQSGSELVKSGASVKLSCTVSGFNFTDYYIHWVRQRTEQGLEWIGRIDPENDETTYAPKFQGKATMTADTSSNTAYLQLTSLTSEDTAVYYCARSTVLDYWGHGTTLTVSS VL: DVLMTQSPASLSVSLGDRATISCRSSQSIVHTNGNTYLEWYLQKPGQSPKLLIYKVSNRFSGVPDRFSGSGSGTDFILKISRVEAEDLGVYYCFQGSHVPPTFGGGTKLEVK | binds |  |
| RS_H000_L001 (antibody, V domains shown, recombinant multimeric IgA made with H, L and J chain vectors (mainly dimers by SDS-PAGE); also called rW27) VH: EVQLQQSGSELVKSGASVKLSCTVSGFNFTDYYIHWVRQRTEQGLEWIGRIDPENDETTYAPKFQGKATMTADTSSNTAYLQLTSLTSEDTAVYYCARSTVLDYWGHGTTLTVSS VL: DVLMTQSPASLSVSLGDRATISCRASQSIVHTNGNTYLEWYLQKPGQSPKLLIYKVSNRFSGVPDRFSGSGSGTDFILKISRVEAEDLGVYYCFQGSHVPPTFGGGTKLEVK | binds |  |
| RS_H007_L005 (antibody, V domains shown) VH: EVQLQQSGSELVKSGASVKLSCTVSGFNFTNYYIHWVRQRTEQGLEWIGRIDPENNQTTYAPKFQGKATMTADTSSNTAYLQLTSLTSEDTAVYYCARSTVLDYWGHGTTLTVSS VL: DVLMTQSPASLSVSLGDRATISCRSSQSIVHTNGNTYLEWYLQKPGQSPKLLIYKVSNRFSGVPDRFSGSGSGTDFILKISRVEAEDLGVYYCFQGSHVPPTFGGGTKLEVK | binds |  |
